Experimental data published in FireProtDB (doi:10.1021/cb5003762).
Several values for one entry are separate records, joined by “and”; a condition that tells them apart may be missing. Equal values may be shown once.

B1: Histone deacetylase 8, Q9BY41 (parent)
chain: MEEPEEPADSGQSLVPVYIYSPEYVSMCDSLAKIPKRASMVHSLIEAYALHKQMRIVKPKVASMEEMATFHTDAYLQHLQKVSQEGDDDHPDSIEYGLGYDCPATEGIFDYAAAIGGATITAAQCLIDGMCKVAINWSGGWHHAKKDEASGFCYLNDAVLGILRLRRKFERILYVDLDLHHGDGVEDAFSFTSKVMTVSLHKFSPGFFPGTGDVSDVGLGKGRYYSVNVPIQDGIQDEKYYQICESVLKEVYQAFNPKAVVLQLGADTIAGDPMCSFNMTPVGIGKCLKYILQWQLATLILGGGGYNLANTARCWTYLTGVILGKTLSSEIPDHEFFTAYGPDYVLEITPSCRPDRNEPHRIQQILNYIKGNLKHVV

Variants of: B1
Details: Homo sapiens; pH 7.5; Thermal; fluorescence; Hepes 25 mM; KCl 150 mM; structure 2V5W; whole UniProt chain shown
Work on C153F yielded a Tm of 50.6 °C.
In the case of A188T, the Tm is reported as 46.5 °C and 50.6 °C.
